Experimental data from PMC10283294, “Chromosome-level genome assembly of Murraya paniculata sheds light on biosynthesis of floral volatiles” (BMC Biology, 2023).

Key:
Assay in all cases: GC-MS of phenylacetaldehyde, Lineweaver-Burk
[1] = system: Me4G_0535 (PAAS); type: biochemical, Murraya paniculata; conditions: pH 8.5 Tris-HCl, 28 °C, 0.2 mM PLP, 0.1 mM EDTA; read-out: apparent Km
[2] = target: T1, Me2G_2382 (PAAS) (Murraya paniculata, UniProt Z9M7G4IQ32); type: biochemical; conditions: pH 8.5 Tris-HCl, 28 °C, 0.2 mM PLP, 0.1 mM EDTA
T1 sequence (Z9M7G4IQ32 1-505): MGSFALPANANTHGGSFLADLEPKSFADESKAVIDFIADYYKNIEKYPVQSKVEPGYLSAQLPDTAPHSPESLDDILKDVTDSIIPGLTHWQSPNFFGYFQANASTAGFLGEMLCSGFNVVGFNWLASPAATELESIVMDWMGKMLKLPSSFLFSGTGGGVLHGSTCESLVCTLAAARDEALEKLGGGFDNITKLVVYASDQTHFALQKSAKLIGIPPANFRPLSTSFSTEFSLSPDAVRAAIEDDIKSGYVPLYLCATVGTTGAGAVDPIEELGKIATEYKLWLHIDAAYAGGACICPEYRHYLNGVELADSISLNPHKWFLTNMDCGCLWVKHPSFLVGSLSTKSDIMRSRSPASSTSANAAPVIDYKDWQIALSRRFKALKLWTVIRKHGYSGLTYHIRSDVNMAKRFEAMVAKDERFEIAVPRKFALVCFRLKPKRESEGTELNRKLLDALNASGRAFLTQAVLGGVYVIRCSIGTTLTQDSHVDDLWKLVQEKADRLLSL

[3] = target: T2, Me3G_1222 (PAAS) (Murraya paniculata, UniProt Z9VGT8ZCM8); type: biochemical; conditions: pH 8.5 Tris-HCl, 28 °C, 0.2 mM PLP, 0.1 mM EDTA; read-out: apparent Km
T2 sequence (Z9VGT8ZCM8 1-380): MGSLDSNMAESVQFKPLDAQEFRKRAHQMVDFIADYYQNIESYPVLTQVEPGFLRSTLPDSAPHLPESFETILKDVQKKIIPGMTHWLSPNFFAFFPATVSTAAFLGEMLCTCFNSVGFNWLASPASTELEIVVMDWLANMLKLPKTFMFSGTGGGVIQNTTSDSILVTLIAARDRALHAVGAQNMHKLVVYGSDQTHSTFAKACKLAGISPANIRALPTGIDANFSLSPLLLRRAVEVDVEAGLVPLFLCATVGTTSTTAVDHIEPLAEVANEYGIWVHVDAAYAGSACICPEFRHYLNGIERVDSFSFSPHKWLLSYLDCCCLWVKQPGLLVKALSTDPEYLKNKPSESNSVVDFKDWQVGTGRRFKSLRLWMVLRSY

[4] = system: Me5G_1302 (PAAS); type: biochemical, Murraya paniculata; conditions: pH 8.5 Tris-HCl, 28 °C, 0.2 mM PLP, 0.1 mM EDTA; read-out: apparent Km
[5] = system: Me3G_2284 (PAAS); type: biochemical, Murraya paniculata; conditions: pH 8.5 Tris-HCl, 28 °C, 0.2 mM PLP, 0.1 mM EDTA; read-out: apparent Km
[6] = substrate: N[C@@H](Cc1ccccc1)C(=O)O; type: biochemical, Murraya paniculata; conditions: pH 8.5 Tris-HCl, 28 °C, 0.2 mM PLP, 0.1 mM EDTA

N[C@@H](Cc1ccccc1)C(=O)O [L-phenylalanine]
Km [1]: 2 ± 0.54 mM
apparent Km [2]: kinetic characterisation of purified recombinant PAAS revealed an apparent Km for L-phenylalanine (L-Phe)
Km [3]: 9.99 ± 0.46 mM
Km [4]: 9.89 ± 1.77 mM
Km [5]: 36.6 ± 4.35 mM

B1: Me3G_0317 (PAAS) (Murraya paniculata) (protein)
chain: MGSLTSDLELEYNSNSSINLLDSEEFRRQGHMFVDFMAEYYKTIDKYPVRSQVEPGYLKKRLPESAPYSPESVETILEDVQEHIVPGITHWQSPNYFAYFPATSSVPGILGEMLSSGFNVVGMDWISSPAAVELENIVMDWLGQMLNLPKSFLFSGNGGGVIQGTTCEALLCTLTAARDRVLKKIGRENISKLVVYSSDQTHCAFQKAAQIVGIDRKNIRAIKTTKSSSYGLSAESVLSQINLDVEAGLIPLFLCATVGTTAITAVDPLRPLCDVAKQFGMWVHVDAAYAGSACICPEFRHFIDGVECVDSFSFNPHKWLFTSLDCCCLWVKDPSCLLSTLSTNPHYLKNEATDQEPKGQEVGYKDWQITLCRRFRSLKLWLVIRNFGVANLRNFIRSHVGMAKLFERLVHSDKRFEVAFPRNFSLVCFRVTPSAVMDKLRTKYKNGTHDQYRQLSEEERTNEFNRELLESINVSGKVFMTHAIVGGIYVLRFAAGNSMTMESHVREAWTVVQEHLEAF
Km [6]: 2.7821 ± 0.73 mM
kcat/Km [6]: 45.2 M⁻¹ s⁻¹

B2: Me2G_2379 (PAAS) (Murraya paniculata) (protein)
chain: MGSFALPPNGNTHGRSFSADLEPKSFADEAKAVIDFIADYYKNIEKYPVQSKVEPGYLSAQLPDTAPHSPESLDDILKDVTDSIIPGLTHWQSPNFFGYFQANASTAGFLGEMLCSGFNVVGFNWLASPAATELESIVMDWMGKMLKLPSSFLFSGTGGGVLHGSTCESLVCTLAAARDEVLEKLGGGFDNITKLVVYASDQTHFALQKSAKLIGIPPANFRPLSTSFSTEFSLSPDAVRAAIEDDIKSGYVPLYLCATVGTTGAGAVDPIEELGKIATEYKLWLHIDAAYAGGACICPEYRHYLNGVELADSISLNPHKWFLTNMDCGCLWVKHPSFLVGSLSTKSDIMRSRSPASSTSANAAPVIDYKDWQIALSRRFKALKLWTVIRKHGYSGLTYHIRSDVNMAKRFEAMVAKDERFEIAVPRKFALVCFRLKPKRESEGTELNRKLLDALNASGRAFLTQAVLGGVYVIRCSIGTTLTQDSHVDDLWKLVQEKADRLLSLQEPEHARC
Km [6]: 3.7265 ± 0.83 mM
kcat/Km [6]: 100 M⁻¹ s⁻¹

B3: Me2G_2381 (PAAS) (Murraya paniculata) (protein)
chain: MGSFALPANANTHGGSFSADLEPKSFADEAKAVIDFIADYYKNIEKYPVQSKVEPGYLSAQLPDTAPHSPESLDDILKDVTDSIIPGLTHWQSPNFFGYFQANASTAGFLGEMLCSGFNVVGFNWLASPAATELESIVMDWMGKMLKLPSSFLFSGTGGGVLHGSTCESLVCTLAAARDEVLEKLGGGFDNITKLVVYASDQTHFALQKSAKLIGIPPANFRPLSTSFSTEFSLSPDAVRAAIEDDIKSGYVPLYLCATVGTTGAGAVDPIEELGKIATEYKLWLHIDAAYAGGACICPEYRHYLNGVELADSISLNPHKWFLTNMDCGCLWVKHPSFLVGSLSTKSDIMRSRSPASSTRANAAPVIDYKDWQIALSRRFKALKLWTVIRKHGYSGLTYHIRSDVNMAKRFEAMVAKDERFEIAVPRKFALVCFRLKPKRESEGTELNRKLLDALNASGRAFLTQAVLGGVYVIRCSIGTTLTQDSHVDDLWKLVQEKADRLLSLQEPEHAGC
Km [6]: 1.7943 ± 0.60 mM
kcat/Km [6]: 62.9 M⁻¹ s⁻¹

B4: Me1G_2960 (PAAS) (Murraya paniculata) (protein)
chain: MDAEQLRENAHKMVDFIADYYKSIENFPVLSQVQPGYLHNLIPDSAPNHPESLQNVLDDIQEKILPGVTHWQSPNYFAYFPSNSSVAGFLGEMLSAGLNIVGFSWITSPAATELEMIVLDWLAKLLKLPEDFLSTGQGGGVIQGTASEAVLVVLLAARDEALKRVGKNSLEKLVVYASDQTHSALQKACQIGGIHRQNFRVLKTDSSTNYSLSPDSLAEAISRDLTMGLIPFFLGATVGTTSSTAVDPLLALGNIAKSNGMWFHVDAAYAGSACICPEYRQYIDGVEKADSFNMNAHKWFLTNFDCSALWVKDRNTLIQSLSTNPEFLKNKVSFYFSVHNMFLYYFLAQLSRPKSKSHLFVFVHINCIMNCPFNNVMLTVVELSTLSGENGNILASQANMVVDYKDWQIPLGRRFRSLKLWMVLRLYGLENLQGYIRNHIQLAKHFEGLVAQDSRFEVVTPRIFSLVCFRLLPPHNDEDHGNKLNHNLLDAVNSTGKIFISHTVLSGKYILRFAVGAPLTEGRHVNAAWEVVRDRASALLARLSTE
Km [6]: 1.7851 ± 0.66 mM
kcat/Km [6]: 55.9 M⁻¹ s⁻¹
